In PMC5531254, “MRE11 stability is regulated by CK2-dependent interaction with R2TP complex” (Oncogene, 2017):
No end group written: not given here.

Assays:
[1] = biological target: PIH1D1 N-terminal PIH-N domain fragment (UniProt Q9NWS0); experiment: ITC; MRE11 peptides with purified PIH1D1 PIH-N domain fragment, performed as described previously
[2] = biological target: PIH1D1 (51-180) (UniProt Q9NWS0); experiment: ITC; ~80 uM protein and ~800 uM peptide; performed in triplicate, means ± standard deviation; ITC as described previously
PIH1D1 (51-180) (UniProt Q9NWS0), sequence (Q9NWS0 51-180): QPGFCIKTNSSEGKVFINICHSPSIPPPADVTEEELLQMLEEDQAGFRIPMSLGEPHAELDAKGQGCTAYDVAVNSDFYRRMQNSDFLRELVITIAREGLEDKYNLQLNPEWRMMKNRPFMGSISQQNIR

[3] = biological target: T1, PIH1D1 (51-180) (UniProt Q9NWS0 51-180); experiment: as above; settings: both partners purified
T1 construct: also called PIH1D1 N-terminal PIH-N domain fragment (aa 51-180); PIH-N; source: purified as described previously
T1 sequence (Q9NWS0 51-180): as above

| Molecule | Kd [1] [µM] | Kd [2] [µM] | stoichiometry N [2] | stoichiometry N [3] |
| --- | --- | --- | --- | --- |
| MRE11 DpSDD motif-containing peptide phosphorylated on serines 558 and 561 | 26 |  |  |  |
| MRE11 pS558/pS561 peptide (ITC) |  | 26.1 | 1.1 |  |
| MRE11 pS688/pS689 peptide (ITC) |  | 40.9 | 0.8 |  |
| MRE11 third acidic sequence peptide phosphorylated on serines 688 and 689 | 41 |  |  |  |
| YSDLDSDDEFVPY (also: phosphoserine at 491 (TEL2 numbering), position in peptide not given here, N-terminal tyrosine added for concentration determination; not part of TEL2; source: synthetic peptide) [TEL2 pS491 peptide] |  |  |  | 1.3 |
